Measured values as given in the DeepSol protein solubility set.

Assay: soluble on expression in E. coli; label from the status in PepcDB or PDB records

Row | Sequence | soluble on expression in E. coli
1 | MNFGKSSWRTYEQGIQREWLLTNGIGGFASSTIIGSNTRRYHGLLVAALKPPVSRHLILSKIDECVTVDNESFNLFSYEVPGFIMHGYHHLERFEYDMLPKYIYRVKDVYVEKEICMVYGENTVVVVYHVINGTGRTNLRLTPLVNFRDYHFNSGRAYMSFERKFEKDVLTVRPSCYDIDIKLYSTDGKFTELDDTWFYNMDYAVERERGLASTEDHYIPGYYDIEIKPLEEKYITFVATVEKNVNHRDGLKIIEKEKKRLKKLASKAGYKDELAKKLVLAADKFIVHRESTNAKTVIAGYPWFTDWGRDTMISLAGLTLATRRFEDAKEILYTFSKYVKDGLIPNMFPDAGHEPPYNTVDAALWYFEAVNKYVNYTHDYKFIKENIYSGLKQIIEYYSKGTHFNIKADEDYLISAGDEHTQLTWMDAKVGDWVVTPRHGKAVEINALWYNALKIMSQLSKHFKEDAGLYDEMAEKVKKSFEEKFWNEEKKCLYDCLTPNYKDDKVRPNQILAVSLSYPVIEGEKAKSVVDIVFKELYTAYGLRSLSPKEKEYVGVYMGDQYRRDGAYHQGTVWTWPLGHFITAYLRVNNYSPEARKMALRFIEPFKDHLQDACLGSVSEIFDGNEPLIPRGCFAQAWSVAEILRAYVEDVMQLVQLKH | soluble
2 | MQNETINLKQHLAAIKEYWQPEIINRHGFQFHLVKLLGDYGWHTHGYSDKVLFAVEGDMAVDFADGGSMTIREGEMAVVPKSVSHRPRSENGCSLVLIELSDPSEAV | soluble
3 | MILVTGATGVVGRQVAHTLARSGRVRLLVRDPARLTVEGPGVEVATGAYEDHASLLRALKGVEAAFLVTVDPGGQEDGRFLRAAVAADVRHVVKLSSYAAGEDDADDLITRWQRKCEETLRSSGLDWTLLRPRAFMSNTLSWADSIRREGTVRALYPGSENACVDPRDIAEVAVTALTSPGHEGRVYPLTGPEAVSAEQQTRHLAAVLGRPLVCRELTPQQAAARWARRYPPKVVHALVLSAQRQLLGRKTTTDPTFARVTGHPPRSYRQWATDHRNAFA | not soluble
4 | MAHHHHHHMRRSSMKFGLRQILSEELGKAAIFLRFKANEYIASTARACQTLTGAETNPEQANKRRKHRQVYEEILRQRQQVAQEAARRAMEGKSLRERLMASASAALKGLKEATSTNAGALALLQHCTAAHAAEVAVEQGIDVKSVTMQVEERKTGSQVGSETVVVGYIDAPNTSEEEMMAFAEQLSKKCPMANAMRGKIEWRRANGEVQHNDEQTTGNDNSVGSTSDKAGDAGSIPHGMPGTRYYSHESMRRGAGGVGDGDELHLPGVTKGSGKGPDK | soluble
5 | MGSDKIHHHHHHMGEHFLLEMVDITKEFPGVKALDRVQLKVRKGSVHALMGENGAGKSTLMKILIGMYKPNEGKIIFDGEEVTFNSINDALDKGISMIHQELSPIPEMTVAENIFLGREPTFGKSGLVDNKKLIEMTRNLLESLEINIDPRKKMGELSIANTQMIEIAKAISFHSKLVIMDEPTSAITEKEVAQLFKMIESLKKKGVGIIYITHKMSELDEIADDISVFRDGKYIGTDTAKNLTRDDLIKMMVGRELNQIFDKPEPKLGEVILSVKSLTKQDYFEDVSFEVRKGEIVGFAGLMGSGRTEVLETIFGVKEAESGEIFVNGQKARIKSPQDAVKNNMGFLTEDRKLTGLFLPLSVRENMITVNIDKYINMGWLNGKRVKKDCEQQKQKLYIKTPSIEQIVENLSGGNQQKVLLARWLLKNPDILFLDEPTRGIDVGAKSEFYNLIFELASQGKAIVVVSSEMAEILGLCDRILVMHEGKVTGELTREEANQEKIMQYATGQAKMAKKLHVHNNFEQTVTANKIEIG | not soluble
6 | IPADELFSRDALRKVEDIRNKTKNKSYIRKALKKPWNILVGSLPVGFDFPARIIAEIVDAPKLSLEGLVKKANYYLSEGADIVDIGMVAGETNVKFLDVIPEFREVLGREVPISLDSLNAKELEAGLDFVDMILSVDWSNVEDLVTDKPVVLIPTDMKNGYFPLNPRDRVESLEKLKEKALSLGYKRIIADLILEHYPGFSRSIVAFSLYRDRNREDIMLAGVGNVTEMTDADSPGINALLAGIASELRISMLLTTEVSRKCTGSIRELRRAIDMTLLGGVKDVGLNLLLLKEKKDKGLRFEISKNIVEAKRKEVKLEDTYFRIFVDNGKIYVNAYKGMNLVITIVGNEPNEIMDTILDYFSLSPRHAFYLGRELEKAYTALKLRRSYAQEEELFRDFYTK | not soluble
7 | GPGSMKRSRRATQQEDVMRALKEGVQALSVSSALSTKDLVCRGDHARAIQQFLEDEKHHTMQIFGMPGTGKTATVNFALAQLVSRRGTKPTAVFLNGFVVQKSSDIYYTLHHHLTKARLGAVEPCPVAQCASRIEKRFRHGWGGKPPALCVIVVDEVDKILEKHSKGFFKVVDWLTLPYANCKLITISNSMELQLDAKTKSRLGVVNQLVFSSYGTQELREILVHRVGAIEPKLFADQAVNQLCTQTASHYGDVRRLLQSASAAICGVLMRMRDDAVDVSSTDGIITLREIHTVVRQIFHDRFVEFITTMRMPALFITVAVLGKETEALIRKREVDCRIPLERLLAITQQAQRKCMNVLRPINRAAFMEEIELLRQVSLIEVCIGEDRIPIRCVDELLDAKEEVFVLLLQPYQMVVDSCRLHDAFGATYGAALHL | not soluble
8 | GPGSMSIHQTKVCSVNEPLSNPDDSALEYCVEAQSPVNRTTSTWEFRSKLFPHAFAAVLDTDLSESETTQRELAEWTRKRCRNYERQGDILRSQLGVLVSSGAANGKRSDADDGDDEAFLVGLGEWSLQESSSQYLNSAKKKKCHRQLRCKDSYESALLLERQWSERHAVSLKHSCMKGAHPTPAAQNFELGCAKDLCRDASSVEIHSITPAASVVAAEKTRSVTACEPPTEQERKKNRGVASEHEGTQNFAEHLVVQYFIPDGSEAESGKSSNDTRGGACGRGLYSMPLSVFRYHYPQLLLDFLLQHSVVMESS | not soluble
9 | MLQLFSFLAIFYISLSNCDPQILRLKSIPSPIPNVEEGAKLYLASNDDNGLLKNIQVQTAGGSFTLDQINVNTANGNAKSIVIDGGLVISTSNSNADTSGLTGFLYLTTKKQADDPAFSVYVIKQAQTVSTTQPNSTVVILNTELDNDAFFDHIEPLQIGLDYWYFTASEPMSMTMESKYVSDLVYTTTSVNTTGLVVNDFLFQEHVVKFQLDLTRVRTIGTLVSAIPIASQINVIFNQGGGISAQR | not soluble
10 | MGSDKIHHHHHHAQKGVDNGTQFGSGEDSVRCITNISLFVPYAKAGNFKDAYDFWKIVYDECPAATKDIYLYGVKIMGWKIAQEKDPAKKNALIDDLMGVYDKRVKYFGNDRRYGKDWIVARKVQDYLAQTGDNADYNQAYTWLKEIVDEKGADTEALGLSLFSFSSMKKMLNDPNFKEQYIQDYLKVSAGLDAQLKAAQAANNQKEVNALTAYKSGVDNAFANSGAADCETLQNLYAAKIEENKDNLPYLKETISLLRRTGCQEIEAYFLASDYAYRQEPSAEAAVGLGKKAVKIKDYDTAIKYFDEAANLETDATSKADDYYMIALLLFEQNAYSKARQYCQKALEVNPNYGNAYLLIGKMYAATSKSVFPNDGVLARAAYNAAIDKFEKAKQVDPSVAEEANTLISSYRAHLPSTEEIFMHPDLEKGKPFTVGGWIGERTTIR | not soluble
11 | GPGSMITEGAATPCAEVPAIRRVRRTRSRFERLVRPEDVAPGEPTPSVEGWVLFLTNLPPNTTMDHITDLFVTREGEGLWNVREVKMPLDKNCECCGYALVELEKREAFEAALRDMEGMTLSFAEGEPPNGEDAWRLHIAPTFLGEKDDEEEELVAGGKRERE | soluble
12 | SMQPPIAKPGETWILQAKRSDEFNVKDATKWNFQTENYGVWSWKNENATVSKGKLKLTTKRESHQRTFWDGCNQQQVANYPLYYTSGVAKSRATGNYGYYEARIKGASTFPGVSPAFWMYSTIDRSLTKEGDVQYSEIDVVELTQKSAVRESDHDLHNIVVKNGKPTWMRPGSFPQTNHNGYHLPFDPRNDFHTYGVNVTKDKITWYVDGEIVGEKDNLYWHRQMNLTLSQGLRAPHTQWKCNQFYPSANKSAEGFPTSMEVDYVRTWVKV | soluble
13 | LKLPDMRDVVGQPEARFAAEVAAAGGHHMLMIGPPGSGKSMIAERIPSLLPELSPQQMIEATAVHSVVGRTFSGPVSRAPFISPHHNVSKAALLGGGSGSPLPGAISLAHHGVLFLDEVSEIPASILDSLRTPLEYGSIRIIRSRHDVTFPAQFQLILAANPCRCG | not soluble
14 | DLIVTAGGKNVSPGPMEDIIRAHPLVSQAMVVGDGKPFVGLLVTLDPDMLKRWKLNHNIAESRTVSEIATDPALRAEIQDAVNNANATVSHSEAIKRFYILDRDLTEEADELTPTLKVKRNVVVRRYADAIDHIYNR | not soluble
15 | MFFESCKSILYSDTLVPDIFITEYMPLLSSDSVKVYLYSLFLSKHNKKASTEEFAKSMGLEISTVKECLAQLESMGVLTWKEDGLVLHDLKEKEINKMYRLKTTSTPEEVASNCEKNKKRNEIIYTINNTFFQGVMSPSWYTDIDAWFDRYKFDEDVMLALFQYCFDHKGLIKPYIEKVAESWKNRNIRNAFDLDNYSIQYKKFKDVRSAIVKKLKLGRNLTEYEEAYVEKWVMDYNYDFDIIELALKKTTSKTNPNFDYLDSIITDWHNNNFKTKEEIMSYEAARKKKNSRTSSVSASVIVPQKGNFEQRKYEDEYLNSLYENA | not soluble
16 | SGSQAGSFRKASPQTPNIDENEKRIKRLEKLKRDLQNIKNERGILQGILAKYKDLNDRTNFETFMLEMQHNQMMTDLKRMSQDISEALYKCQHLTKENQLYCCRNCHLLIESNLIQHKVRMLWKENRQLLRKQIALEECNIKTKILCKEGSQKIKDEYSRQAAGKQIIVVPGSKEEAAMSNPCA | soluble
17 | MQTYIETSRLILRDWKEEDIPAFARMNADPHVMEFFLHPLTPEESLAFYHRIQNEFQTCGFGLYAVERKEDHAFMGYTGLHQITFDVDFAPGIEIGWRLAHEYWGRGYAPEAATACLEYARKSLDIKELFSFTSLPNQRSERVMQKIGMERVREFGHPLVPAEHPLHRHVLYYIDLRKHSS | not soluble
18 | MGSDKIHHHHHHMPQGKANPFNINTSVKNGTVAKVGSISPTSFLNSVDPNATEVDVGGEPFNQKEFLELALNDDFLKGLLLDEEGNIKPEVAGEATIQGLEQWHQNDAGLEVDDTDTLGLMFNYYLNDNVSLQFIGGIPPKVDIKGQGEILAPLSGVALSPNELVKILFPNGITLGQAVPITNLGNKPKAASVRAWTPAIEAQYQFGKSGVNKFRPYLGVGLMYAHFNDIKLNDEIRSDLISAGHMIQNVLDGKAGAALDRKESSGNMVVKVDADDAIAPIFTAGFTYDFNDSWYTVASVSYAKLNNRTQIDVINQNTGARLIHGSTKVDIDPIITYLGVGYRF | not soluble
19 | AHHHHHHGSAELKVSAIKEGTVIDHIPAGKGLKVIQILGLGELKNGGAVLLAMNVPSKKLGRKDIVKVEGKFLSEEEVNKIALVAPTATVNIIREYKVVEKFKVEIPDVIEGILKCGNPNCITHYEYVTPKFYVISKEPLKVRCHYCERTMEEEEILANL | soluble
20 | MAHHHHHHMENHKDDAVLLKHGWCEMLKGGVIMDVKSVEQAKIAEEAGAIGVMVLENIPSELRNKEGVARSVDPSKVEEIKKCVSINVLAKVRIGHFVEAQILEELKIDMIDESEVLTIADEMHHIDKHKFKTPFVCGCTNLGEALRRISEGASMIRTKGEAGTGNIIEAIKHIRTVNNEIKYLCSLSDSEVYHFAKKINAPIDLVLLTKKLKRLPVVNFAAGGVATPADAAMCMQLGMDGVFVGSGIFESENPRKMAASIVSAVSNFNNPKILLDVSMNLGKAMCGSTRVSDKWKNKNEEHTKFLTPQ | not soluble
21 | MGSDKIHHHHHHMDDTTPPETPAVDDLLQRIAGAYDTLPRQLKRIASYIDEHRSSVMMDRTSDIAQRCGVHPSAVVRFAQRFGFSGFSDLQAVFKDAYTGQNPTVQSYQQRIRSLIDGEAGPMTGGAVARQFIDASRAGLDELAAGLDDDQFDAAVTMLERAENIYVVGVRRSFPVASYIVYALQHTAKRVHLVSGLGGMYREQIRSVKKGDVVIAISFAPYGKETQYCLRAARHNHAQTLVVTDSRLSPLARDASAHLLVKEGSAFAFRSLTSTICLCQALFIALAYRLELNVEEVKDIGGYDD | not soluble
